We go through 1 molecule from patent publication US20100086538A1 (UCB, published 2010).

Where a chain is given by its changes, count along the chain named. Names and notes keep the numbering of the source. Values joined by “and” are separate entries in the source; they are usually repeats but may differ in a detail not shown here. Equal entries are not always repeated.

For orientation: kon means the second-order rate constant of association. For orientation: Kd means a measure of binding affinity in units of concentration. Usually koff stands for the rate constant with which the complex falls apart.

The target of test [1] is T1, cynomolgus monkey IL-17 (expressed transiently) (cynomolgus monkey, UniProt A0A2K5TTB0 24-155).
T1 construct: also called transient cynomolgus IL-17
T1 sequence: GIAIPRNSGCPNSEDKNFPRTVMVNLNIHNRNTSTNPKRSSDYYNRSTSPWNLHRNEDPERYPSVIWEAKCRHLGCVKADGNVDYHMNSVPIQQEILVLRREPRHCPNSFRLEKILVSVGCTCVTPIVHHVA
Nature of the test: BIAcore 3000, antibody captured by anti-human IgG Fc, IL-17 as analyte; analyte concentration estimated; transient cynomolgus IL-17, concentration estimated. The procedure:
(§1) BIA (Biamolecular Interaction Analysis) was performed using a BIAcore 3000 (BIAcore AB). Affinipure F(ab′)₂ Fragment goat anti-human IgG, Fc (Jackson ImmunoResearch) was immobilised on a CM5 Sensor Chip via amine coupling chemistry to a capture level of ≈8000 response units (RUs). HBS-EP buffer (10 mM HEPES pH 7.4, 0.15 M NaCl, 3 mM EDTA, 0.005% Surfactant P20, BIAcore AB) was used as the running buffer with a flow rate of 10 μL/min. A 10 μL injection of CA028_{—}497.g2 was used for capture by the immobilised anti-human IgG-F(ab)₂. IL-17 was titrated over the captured CA028_{—}497.g2 at various concentrations at a flow rate of 30 μL/min. The surface was regenerated by a 30 μL injection of 40 mM HCl, followed by a 10 μL injection of 5 mM NaOH.
(§2) Background subtraction binding curves were analysed using the BIAevaluation software (version 3.2) following standard procedures. Kinetic parameters were determined from the fitting algorithm.
(§3) The concentrations of IL-17 from different non-human primate (NHP) species expressed transiently were estimated relative to human IL-17 and these concentrations were then used to determine the affinities of the IL-17s. The affinity was measured at IL-17 concentrations at or below 25 nM. […] The concentration of transient cynomolgus IL-17 and transient marmoset IL-17 was estimated based on equivalent human IL-17 binding.

In test [2] the target is T2, mammalian cell (CHO) derived human IL-17 (human, UniProt Q16552 24-155).
T2 sequence (looked up): T1 sequence with A3T, S8P, S34N, V77I, K78N, R104P
The test is described as follows: cell-based or functional assay.

In test [3] the target is T3, recombinant human IL-17 (R & D systems) (human, UniProt Q16552 20-155, limits assumed).
T3 sequence (looked up): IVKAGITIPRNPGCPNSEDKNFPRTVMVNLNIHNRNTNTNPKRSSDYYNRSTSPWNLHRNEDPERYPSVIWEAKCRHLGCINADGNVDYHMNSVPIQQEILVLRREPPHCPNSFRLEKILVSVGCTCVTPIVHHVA
Nature of the test: cell-based or functional assay.

The target in test [4] is T4, marmoset IL-17 (expressed transiently) (marmoset, UniProt A0ACM8QD00 24-153).
T4 construct: also called marmoset 06073130c; transient marmoset IL-17
T4 sequence: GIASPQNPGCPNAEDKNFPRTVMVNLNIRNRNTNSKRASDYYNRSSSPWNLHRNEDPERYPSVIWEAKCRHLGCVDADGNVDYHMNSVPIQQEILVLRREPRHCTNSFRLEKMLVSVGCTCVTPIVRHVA
The test is described as follows: BIAcore 3000, antibody captured by anti-human IgG Fc, IL-17 as analyte; analyte concentration estimated. On the procedure: as §1, §2, §3

Test [5] concerns the target T1, cynomolgus monkey IL-17 (expressed …). The description is as above. The procedure: as §1, §2, §3
Test [6] has as its target T4, marmoset IL-17 (expressed transiently). Nature of the test: BIAcore 3000, antibody captured by anti-human IgG Fc, IL-17 as analyte. The procedure:
as §1, §2, §3
A general note: SPR reads the build-up and loss of mass on a sensor chip optically.

For test [7], the target named is T3, recombinant human IL-17 (R & D systems). The test is described as above. On the procedure:
as §1, §2, §3

The target in test [8] is T1, cynomolgus monkey IL-17 (expressed …). The description is as above. The procedure:
as §1, §2, §3

B1: antibody CA028-497.g2 (antibody, human IgG4 S228P, kappa, V domains shown)
VH: EVQLVESGGGLVKPGGSLRLSCAASGVIFSDYYMAWVRQAPGKGLEWVASINFNADISYYRESVKGRFTISRDDSKNTLYLQMNSLKTEDTAVYYCTTDANRQNYDWFAYWGQGTLVTVSS
VL: AIQLTQSPSSLSASVGDRVTITCKASESVSSSMYSYMHWYQQKPGKAPKLLIYRASNLESGVPSRFSGSGSGTDFTLTISSLQPEDFATYYCQQSWTAPRTFGQGTKVEIKR
notes: Humanised IgG4 (S241P) kappa antibody made in CHO cells; also called CA048-497.g2; CA048 497.g2
For the molecule B1, the kon was 1.57e+06 M⁻¹ s⁻¹ in test [1], 1.13e+06 M⁻¹ s⁻¹ in test [4] and 1.86e+06 M⁻¹ s⁻¹ in test [7]. The “IC50, inhibition of IL-17 induced IL-6 production in Hela cells” value in test [2] was 103 ng/mL and 0.7 nM; in test [3], 51 ng/mL and 0.34 nM. For the same molecule, the Kd is 12.9 pM in test [4]; 10.7 pM in test [5]; 6.28 pM and 6.3 pM in test [7]. In addition, the figures for the off-rate (koff) in test [6], in test [7] and in test [8] were 1.46e-05 s⁻¹, 7.38e-06 s⁻¹ and 1.68e-05 s⁻¹, respectively.
